Key:
[1] = target: T1, human C5aR1 transiently expressed on the surface of Expi293 cells (Homo sapiens, UniProt P21730, K279N); test: Cell surface binding (flow cytometry), Expi293 cells transiently expressing human C5aR1; conditions: staining with 100 nM of antibody
T1 construct: expressed in transfected cells; host or cells: Expi293 cells, transient
T1 sequence (P21730 with tags, fused parts or gaps K279N limits assumed): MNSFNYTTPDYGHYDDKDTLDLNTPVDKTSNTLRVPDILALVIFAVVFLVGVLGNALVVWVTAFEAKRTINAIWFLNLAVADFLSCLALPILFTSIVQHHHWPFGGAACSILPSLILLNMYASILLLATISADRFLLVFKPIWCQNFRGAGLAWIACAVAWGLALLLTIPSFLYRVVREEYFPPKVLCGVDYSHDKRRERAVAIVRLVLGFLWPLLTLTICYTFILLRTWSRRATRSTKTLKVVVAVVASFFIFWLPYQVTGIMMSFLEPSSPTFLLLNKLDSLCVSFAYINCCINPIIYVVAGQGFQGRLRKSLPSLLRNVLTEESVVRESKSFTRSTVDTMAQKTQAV
Description: (§1) Follow up screening to ensure specificity was performed by measuring cell surface binding to cells expressing, for example, human C5aR1, human C5aR2, mouse C5aR1, and control cells that were mock transfected. Briefly, cell surface binding was performed on various C5aR1 expressing cell lines (transiently expressed Expi293 cells, stable C5aR1-U937 cells, and neutrophils isolated from whole blood). Briefly, a titration of antibody diluted in flow buffer (1×PBS with 2% fetal bovine serum) was incubated with cells for 1 hour at 4° C. Cells were washed twice with flow buffer. Anti-human-APC secondary antibody was diluted 1:400 in flow buffer and incubated with cells for 30 minutes. Cells were washed twice with flow buffer and resuspended in 100 μL of flow buffer. Fluorescence was measured using the iQue Screen Plus flow cytometer.

[2] = test system: control cells that were mock transfected; test: Cell surface binding (flow cytometry), mock transfected Expi293 control cells; conditions: staining with 100 nM of antibody
Description: as §1

[3] = target: T2, biotinylated peptide representing ECL2 of C5aR1 (Homo sapiens, UniProt P21730); test: Epitope mapping by biolayer interferometry, ECL2 peptide; type: binding; parameters: key: “+” indicates binding to the listed peptide; “−” indicates lack of binding to the listed peptide; conditions: biolayer interferometry, 10 μg/mL of antibody, biotinylated peptide on streptavidin biosensor
T2 construct: cyclic ECL2 peptide spanning from residues R175 to C188
Description: (§2) The epitope mapping was undertaken, using biolayer interferometry, on a series of exemplary anti-C5aR1 antibodies generated as described in Example 1. Briefly, for each antibody, biotinylated peptides representing ECL2, the N-terminus with tyrosine sulfation, and the N-terminus without tyrosine sulfation, were immobilized in a streptavidin biosensor. Subsequently, the biosensor was exposed to 10 μg/mL of antibody to detect antibody binding to the immobilized peptide. The results of the epitope mapping study are shown in Table 4 (“+” indicates binding to the listed peptide; “−” indicates lack of binding to the listed peptide).

[4] = target: T3, biotinylated peptide representing the N-terminus of C5aR1 with tyrosine sulfation (Homo sapiens, UniProt P21730); test: Epitope mapping by biolayer interferometry, N-terminus with tyrosine sulfation; type: binding; parameters: key: “+” indicates binding to the listed peptide; “−” indicates lack of binding to the listed peptide; conditions: 10 μg/mL of antibody, biotinylated peptide on streptavidin biosensor
T3 construct: the N-terminus with tyrosine sulfation
T3 sequence (P21730 1-37): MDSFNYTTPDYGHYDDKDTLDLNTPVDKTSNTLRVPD
Description: as §2

[5] = target: T4, biotinylated peptide representing the N-terminus of C5aR1 without tyrosine sulfation (Homo sapiens, UniProt P21730); test: Epitope mapping by biolayer interferometry, N-terminus without tyrosine sulfation; type: binding; parameters: key: “+” indicates binding to the listed peptide; “−” indicates lack of binding to the listed peptide; conditions: 10 μg/mL of antibody, biotinylated peptide on streptavidin biosensor
T4 construct: the N-terminus without tyrosine sulfation
T4 sequence (P21730 1-37 limits assumed): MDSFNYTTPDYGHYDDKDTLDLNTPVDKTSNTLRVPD
Description: as §2

C5aR1 (C5aR1-U937 cells) [6] = target: T5, C5aR1 (C5aR1-U937 cells) (Homo sapiens, UniProt P21730, K279N); test: C5a induced chemotaxis (transwell), C5aR1-U937 cells; type: cell-based; conditions: C5aR1-U937 cells; 1, 10, or 100 nM antibody; C5a 10^−6 to 10^−9.5 M
T5 construct: expressed in transfected cells
T5 sequence (P21730 with tags, fused parts or gaps K279N limits assumed): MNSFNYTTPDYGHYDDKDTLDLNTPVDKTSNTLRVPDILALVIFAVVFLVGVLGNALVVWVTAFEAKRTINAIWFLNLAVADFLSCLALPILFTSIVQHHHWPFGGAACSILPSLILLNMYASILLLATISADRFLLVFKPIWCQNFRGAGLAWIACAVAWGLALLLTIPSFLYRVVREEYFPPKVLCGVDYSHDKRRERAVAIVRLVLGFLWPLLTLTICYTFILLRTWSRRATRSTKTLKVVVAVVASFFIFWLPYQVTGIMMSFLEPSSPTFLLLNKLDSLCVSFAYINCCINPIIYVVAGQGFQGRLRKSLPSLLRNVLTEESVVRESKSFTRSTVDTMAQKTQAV
Text: (§3) One of the primary mechanisms by which neutrophils migrate to the site of inflammation is by chemotaxis induced by a C5a/C5adesArg gradient is detected by C5aR1 signaling. Anti-C5aR1 antibodies were thus assessed in a chemotaxis assay for their ability to block C5a induced migration of neutrophils. The assay involved cell migration in a double chamber well separated by filters. The cells and inhibitors were applied into the upper chamber and the lower chamber was filled with the chemoattractant, causing the cells to migrate to the lower chamber. The inhibition activity was evaluated by counting the migrated cell numbers. Specifically, a titration of C5a was added to the bottom chamber a 96 transwell plate. Cells expressing human C5aR1 (C5aR1-U937 cells or human neutrophils) were incubated with or without antagonist and then seeded into the top chamber of the transwell plate. The cells were incubated for 2 hours. Cells that migrated to the bottom chamber were quantified using the CyQUANT cell proliferation kit following the manufacturer's protocol. The assay was performed using engineered cells stably expressing C5aR1 as well as using human neutrophils.
as §3, with “Anti-C5aR1” for “One of the primary mechanisms by which neutrophils migrate to the site of inflammation is by chemotaxis induced by a C5a/C5adesArg gradient is detected by C5aR1 signaling. Anti-C5aR1”, “were” for “were thus”
In a first experiment, C5aR1-U937 cells were seeded into the top chamber of a 96 Transwell plate in the presence of no antibody (antagonist), or of 1, 10, or 100 nM antibody (antagonist).

C5aR1 (C5aR1-U937 cells) [7] = target: T5, C5aR1 (C5aR1-U937 cells); test: C5a induced calcium flux (Fluo-4), C5aR1-U937 cells; type: cell-based
Text: (§4) Intracellular calcium is released into the cytoplasm by stimulation of GPCRs and acts as a second messenger of GPCR signaling, commonly used to quantify GPCR agonism and antagonism. As such, calcium flux assays using calcium sensitive dye were utilized to detect cytosolic changes in calcium concentration. […] The dye penetrated the cell membrane and became active once inside the cell. The active form of the dye became fluorescent after binding to intracellular calcium and the fluorescence was used to determine C5aR1 signaling in response to C5a addition. Specifically, stable C5aR1-U937 cells or neutrophils isolated from whole blood were stained with Fluo-4 Direct Calcium Assay kit from Thermo Fisher for 1 hour at 37° C. Next, antibody or antagonist was incubated with the cells for 30 minutes. The basal fluorescence with an excitation at 494 nm and emission at 516 nm was measured for 15 seconds. C5a was added to the cells and the fluorescence was measured over a span of four minutes. The basal read from before C5a stimulation and the max signal after C5a stimulation were used to calculate the response ratio. The potency of the antibodies was assessed for their ability to inhibit intracellular calcium release in C5aR1 expressing cells in the presence of C5a. Similar to the chemotaxis assay, the calcium flux assays were performed using engineered cells stably expressing C5aR1 as well as using human neutrophils.

[8] = target: T6, C5aR1 (human neutrophils) (Homo sapiens, UniProt P21730); test: C5a induced calcium flux (Fluo-4), human neutrophils; type: cell-based
T6 construct: neutrophils isolated from whole blood; host or cells: human neutrophils (cryopreserved, or isolated from whole blood)
T6 sequence (P21730 1-350): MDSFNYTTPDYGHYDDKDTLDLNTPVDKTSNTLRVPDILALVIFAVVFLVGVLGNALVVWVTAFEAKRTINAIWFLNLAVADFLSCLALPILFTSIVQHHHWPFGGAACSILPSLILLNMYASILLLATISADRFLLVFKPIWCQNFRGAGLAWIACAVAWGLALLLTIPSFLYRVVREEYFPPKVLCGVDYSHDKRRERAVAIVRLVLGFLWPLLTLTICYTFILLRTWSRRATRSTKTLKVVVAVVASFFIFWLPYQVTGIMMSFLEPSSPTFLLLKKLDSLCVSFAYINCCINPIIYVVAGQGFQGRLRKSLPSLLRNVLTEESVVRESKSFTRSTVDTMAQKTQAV
Text: as §4

C5aR1 = target: T7, C5aR1 (Homo sapiens, UniProt P21730); test: GeneBLAzer reporter assay (C5aR1 mediated Gα signaling); type: cell-based; parameters: host or cells: vendor's C5aR1 GeneBLAzer reporter cell line; conditions: 10 nM of antibody, 10 nM C5a
T7 sequence (P21730 1-350): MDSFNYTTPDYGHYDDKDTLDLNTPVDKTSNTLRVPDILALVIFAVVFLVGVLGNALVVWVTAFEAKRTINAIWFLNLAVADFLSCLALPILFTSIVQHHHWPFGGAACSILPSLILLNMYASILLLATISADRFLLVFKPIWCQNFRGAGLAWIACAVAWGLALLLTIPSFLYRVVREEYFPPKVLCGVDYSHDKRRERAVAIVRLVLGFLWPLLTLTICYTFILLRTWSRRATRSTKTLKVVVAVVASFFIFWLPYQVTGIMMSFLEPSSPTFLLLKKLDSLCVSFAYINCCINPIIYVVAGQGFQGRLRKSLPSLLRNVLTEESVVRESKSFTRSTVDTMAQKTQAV
Description: In addition, a GeneBLAzer reporter assay was used, which mimics the calcium flux assay. The GeneBLAzer assay kit and C5aR1 cell line were commercially available from Thermo Fisher (Catalog #K1544). The assay was performed as recommend by the manufacturer. Briefly, antibodies or antagonists were incubated for 30 minutes at 37° C. C5a was then added to the cells and incubated at 37° C. for an additional 4-5 hours. Beta-lactamase substrate was then added and incubated for 2 hours at room temperature. Fluorescent measurements for each well with an excitation/emission of 409/460 (blue) and 409/530 (green) were measured. An increase in the blue to green ratio was proportional to C5aR1 activation and was used to calculate the percent of activation for the cells in each well.
Exemplary anti-C5aR1 antibodies generated as described in Example 1 were screened for antagonist activity against human C5aR1 using the GeneBLAzer assay, as described in Example 1. Briefly, cells were pre-incubated with 10 nM of antibody followed by addition of 10 nM C5a. The engineered induction of beta-lactamase expression by C5a-C5aR1 signaling was measured using the BLA substrate and calculating the ratio of blue and green fluorescence.

Row | Molecule | Cell surface binding, Human C5aR1, geometric mean fluorescent intensity [1] | Cell surface binding, Mock transfection, geometric mean fluorescent intensity [2] | Binding to Cyclic ECL2 peptide [3] | Binding to Sulfated N-terminal peptide [4] | Binding to Non-sulfated N-terminal peptide [5] | antagonism of C5aR1 compared to reference antibodies or to Avacopan (C5aR1) | other results
1 | Clone_317v2-1 (antibody, V domains shown) VH: QVQLQQPGAELVMPGASVKLSCKASGYTFTSYWMHWVKQRPGQGLEWIGEIDPSDSYTNYNQKFKGKATLTVDKSSSTAYMQLSSLTSEDSAVYYCARVAYYSNFGGFAYWGQGTTVTVSS VL: DIVMTQSPSSLSVSAGEKVTMSCKSSQSLLKSGNQKNYLAWHQQKPGQPPKLLIYGASTRESGVPDRFTGSGSGTDFTLTISSVQAEDLAVYYCQNDHSHPYTFGGGTKLEIK | 8,106 | 4,535 Clone_507 |  |  |  |  | 
2 | Clone_336_v2-1 (antibody, V domains shown) VH: QVQLKQSGPGLVQSSQSLSITCTVSGFSLISYGVHWVRQSPGKGLEWLGVIWSGGSTDYNAAFKSRLSITKDNSKSQVFFKMNSLQADDTAIYYCAKNSQLGNAMDYWGQGTTVTVSS VL: DIVMSQSPSSLAVSAGEKVTMSCKSSQSLLSSRTRKNYLAWYQQKPGQSPKLLIYWASTRESGVPDRFTGSGSGTDFTLTISSVQAEDLALYFCNQSYDLLTFGAGTKLEIK | 223,156 | 5,007 Clone_511v2 |  |  |  |  | 
3 | clone 336v2-1: exemplary anti-C5aR1 antibody, Table 1C (antibody, V domains shown) VH: QVQLKQSGPGLVQSSQSLSITCTVSGFSLISYGVHWVRQSPGKGLEWLGVIWSGGSTDYNAAFKSRLSITKDNSKSQVFFKMNSLQADDTAIYYCAKNSQLGNAMDYWGQGTTVTVSS VL: DIVMSQSPSSLAVSAGEKVTMSCKSSQSLLSSRTRKNYLAWYQQKPGQSPKLLIYWASTRESGVPDRFTGSGSGTDFTLTISSVQAEDLALYFCNQSYDLLTFGAGTKLEIK |  |  | + | − | − |  | 
4 | clone 11v2: anti-C5aR1 Site II antibody; VH SEQ ID NO: 482, VL SEQ ID NO: 542 (antibody, V domains shown) VH: QVQLQQSGPELVKPGASVKISCKASGYSFSSSWMNWVKQRPGKGLEWIGRISPGDGDTRYSGKFKGKATLTADKSSSTAYMQVTSLTSEDSAIYFCVRFLITSTRYVMDYWGQGTTVTVSS VL: DVVMTQTPLSLPVSLGDQASISCRSSQSLVHSNGNTYLHWYLQKPGQSPKLLIYKVSNRFSGVPDRFSGSGSGTDFTLKISRVEAEDLGVYFCSQSTLVPPTFGGGTKLEIK |  |  | + | − | − | improved | inhibition of cell chemotaxis (C5aR1 (C5aR1-U937 cells) [6]): strongest effects; inhibition of C5a induced intracellular calcium flux (C5aR1 (C5aR1-U937 cells) [7]): inhibition of the C5a induced calcium efflux; inhibition of C5a induced calcium efflux [8]: inhibition of the C5a induced calcium efflux
5 | clone 322: anti-C5aR1 Site I antibody; VH SEQ ID NO: 491, VL SEQ ID NO: 551 (antibody, V domains shown) VH: QVQLQQSDAALVKPGASVKISCKASGHTFTDHAIHWVKQRPEQGLEWIGYISPGNGDIKYNDKFKGKATLTADKSSSTAYMQLNSLTPEDSAVYFCKGPLFVRGQYYITMDYWGQGTTVTVSS VL: DIVMTQSQKFMSTTVGDRVSITCKASQNVGAAVVWYQQKPGQSPKLLIYSASYRYSGVPDRFTGSGSGTDFTLTISNMQSEDLADYFCQQYNSFPLTFGGGTKLEIK |  |  |  |  |  | comparable | 
